From the Human Domainome abundance scans (Beltran et al. 2025) come the findings set out here.

The chains are these.
B1: Steroid hormone receptor ERR2, residues 100 to 176; numbered along this chain, O95718 (parent)
chain: KRLCLVCGDIASGYHYGVASCEACKAFFKRTIQGNIEYSCPATNECEITKRRRKSCQACRFMKCLKVGMLKEGVRLD

± gives the uncertainty stated by the source.

The variants in this data set derive from B1. The data set can be described thus: abundance fitness (aPCA) (normalised: wild type 0, dead -1); higher = more abundant; growth selection in yeast, the domain comes from the species named. The settings on record: Homo sapiens.
With KRLCLVCGDIASGYHYGVASCEACKAFFKRTIQGNIEYSCPATNEFEITKRRRKSCQACRFMKCLKVGMLKEGVRLD [C46F], the abundance fitness is -0.768 ± 0.21.

With KRLCLVCGDIASGYHYGVASCEACKAFFKRTIQGNIEYSCPATNEGEITKRRRKSCQACRFMKCLKVGMLKEGVRLD [C46G], the abundance fitness is -0.679 ± 0.073.

With KRLCLVCGDIASGYHYGVASCEACKAFFKRTIQGNIEYSCPATNEEEITKRRRKSCQACRFMKCLKVGMLKEGVRLD [C46E], the abundance fitness is -0.623 ± 0.11.

As for KRLCLVCGDIASGYHYGVASCEACKAFFKRTIQGNIEYSCPATNEKEITKRRRKSCQACRFMKCLKVGMLKEGVRLD [C46K], the abundance fitness is -0.572 ± 0.14.

As for KRLCLVCGDIASGYHYGVASCEACKAFFKRTIQGNIEYSCPATNEIEITKRRRKSCQACRFMKCLKVGMLKEGVRLD [C46I], the abundance fitness is -1.06 ± 0.43.

On to KRLCLVCGDIASGYHYGVASCEACKAFFKRTIQGNIEYSCPATNEHEITKRRRKSCQACRFMKCLKVGMLKEGVRLD [C46H], for which the abundance fitness was -0.308 ± 0.2.

With KRLCLVCGDIASGYHYGVASCEACKAFFKRTIQGNIEYSCPATNEDEITKRRRKSCQACRFMKCLKVGMLKEGVRLD [C46D], the abundance fitness was -0.844 ± 0.22.

Turning to KRLCLVCGDIASGYHYGVASCEACKAFFKRTIQGNIEYSCPATNELEITKRRRKSCQACRFMKCLKVGMLKEGVRLD [C46L], the abundance fitness is -0.803 ± 0.1.

Turning to KRLCLVCGDIASGYHYGVASCEACKAFFKRTIQGNIEYSCPATNEAEITKRRRKSCQACRFMKCLKVGMLKEGVRLD [C46A], the abundance fitness is -0.888 ± 0.14.

KRLCLVCGDIASGYHYGVASCEACKAFFKRTIQGNIEYSCPATNEMEITKRRRKSCQACRFMKCLKVGMLKEGVRLD [C46M]: the abundance fitness is -0.557 ± 0.12.

Regarding KRLCLVCGDIASGYHYGVASCEACKAFFKRTIQGNIEYSCPATHECEITKRRRKSCQACRFMKCLKVGMLKEGVRLD [N44H], the abundance fitness is -0.314 ± 0.12.

For KRLCLVCGDIASGYHYGVASCEACKAFFKRTIQGNIEYSCPATLECEITKRRRKSCQACRFMKCLKVGMLKEGVRLD [N44L], the abundance fitness was -0.278 ± 0.059.

Consider KRLCLVCGDIASGYHYGVASCEACKAFFKRTIQGNIEYSCPATDECEITKRRRKSCQACRFMKCLKVGMLKEGVRLD [N44D], for which the abundance fitness was 0.119 ± 0.086.

For the variant KRLCLVCGDIASGYHYGVASCEACKAFFKRTIQGNIEYSCPATYECEITKRRRKSCQACRFMKCLKVGMLKEGVRLD [N44Y], the abundance fitness is -0.278 ± 0.13.

As for KRLCLVCGDIASGYHYGVASCEACKAFFKRTIQGNIEYSCPATKECEITKRRRKSCQACRFMKCLKVGMLKEGVRLD [N44K], the abundance fitness was found to be 0.007 ± 0.054.

Regarding KRLCLVCGDIASGYHYGVASCEACKAFFKRTIQGNIEYSCPATWECEITKRRRKSCQACRFMKCLKVGMLKEGVRLD [N44W], the abundance fitness is -0.269 ± 0.058.

Consider KRLCLVCGDIASGYHYGVASCEACKAFFKRTIQGNIEYSCPATTECEITKRRRKSCQACRFMKCLKVGMLKEGVRLD [N44T], for which the abundance fitness is -0.22 ± 0.063.

KRLCLVCGDIASGYHYGVASCEACKAFFKRTIQGNIEYSCPATEECEITKRRRKSCQACRFMKCLKVGMLKEGVRLD [N44E]: the abundance fitness stood at 0.022 ± 0.048.

With KRLCLVCGDIASGYHYGVASCEACKAFFKRTIQGNIEYSCPATGECEITKRRRKSCQACRFMKCLKVGMLKEGVRLD [N44G], the abundance fitness amounted to 0.117 ± 0.038.

Take KRLCLVCGDIASGYHYGVASCEACKAFFKRTIQGNIEYSCPATPECEITKRRRKSCQACRFMKCLKVGMLKEGVRLD [N44P]: the abundance fitness is -0.741 ± 0.14.

KRLCLVCGDIASGYHYGVASCEACKAFFKRTIQGNIEYSCPATQECEITKRRRKSCQACRFMKCLKVGMLKEGVRLD [N44Q]: the abundance fitness was -0.013 ± 0.059.

As to KRLCLVCGDIASGYHYGVASCEACKAFFKRTIQGNIEYSCPATRECEITKRRRKSCQACRFMKCLKVGMLKEGVRLD [N44R], the abundance fitness was 0.011 ± 0.038.

As to KRLCLVCGDIASGYHYGVASCEACKAFFKRTIQGNIEYSCPATIECEITKRRRKSCQACRFMKCLKVGMLKEGVRLD [N44I], the abundance fitness was 0.034 ± 0.13.

In the case of KRLCLVCGDIASGYHYGVASCEACKAFFKRTIQGNIEYSCPATSECEITKRRRKSCQACRFMKCLKVGMLKEGVRLD [N44S], the abundance fitness was -0.127 ± 0.05.

For KRLCLVCGDIASGYHYGVASCEACKAFFKRTIQGNIEYSCPATVECEITKRRRKSCQACRFMKCLKVGMLKEGVRLD [N44V], the abundance fitness was -0.077 ± 0.049.

In the case of KRLCLVCGDIASGYHYGVASCEACKAFFKRTIQGNIEYSCPATFECEITKRRRKSCQACRFMKCLKVGMLKEGVRLD [N44F], the abundance fitness was determined as 0.068 ± 0.14.

Turning to KRLCLVCGDIASGYHYGVASCEACKAFFKRTIQGNIEYSCPATCECEITKRRRKSCQACRFMKCLKVGMLKEGVRLD [N44C], the abundance fitness is -0.473 ± 0.13.

Consider KRLCLVCGDIASGYHYGVASCEACKAFFKRTIQGNIEYSCPASNECEITKRRRKSCQACRFMKCLKVGMLKEGVRLD [T43S], for which the abundance fitness was -0.237 ± 0.051.

With KRLCLVCGDIASGYHYGVASCEACKAFFKRTIQGNIEYSCPAWNECEITKRRRKSCQACRFMKCLKVGMLKEGVRLD [T43W], the abundance fitness is -0.021 ± 0.046.

Consider KRLCLVCGDIASGYHYGVASCEACKAFFKRTIQGNIEYSCPAINECEITKRRRKSCQACRFMKCLKVGMLKEGVRLD [T43I], for which the abundance fitness was -0.065 ± 0.1.

For the variant KRLCLVCGDIASGYHYGVASCEACKAFFKRTIQGNIEYSCPAQNECEITKRRRKSCQACRFMKCLKVGMLKEGVRLD [T43Q], the abundance fitness is -0.175 ± 0.068.

Turning to KRLCLVCGDIASGYHYGVASCEACKAFFKRTIQGNIEYSCPAMNECEITKRRRKSCQACRFMKCLKVGMLKEGVRLD [T43M], the abundance fitness came to 0.03 ± 0.061.

KRLCLVCGDIASGYHYGVASCEACKAFFKRTIQGNIEYSCPAHNECEITKRRRKSCQACRFMKCLKVGMLKEGVRLD [T43H]: the abundance fitness was -0.459 ± 0.15.

With KRLCLVCGDIASGYHYGVASCEACKAFFKRTIQGNIEYSCPALNECEITKRRRKSCQACRFMKCLKVGMLKEGVRLD [T43L], the abundance fitness was -0.234 ± 0.05.

Regarding KRLCLVCGDIASGYHYGVASCEACKAFFKRTIQGNIEYSCPAFNECEITKRRRKSCQACRFMKCLKVGMLKEGVRLD [T43F], the abundance fitness is -0.558 ± 0.14.
